Assay results as given in patent US11833164B2, “Methods of treating Fabry disease in patients having a mutation in the GLA gene” (Amicus Therapeutics, Inc., priority 2019, dated 2023).

System: mutant form of α-Gal A expressed in HEK-293 cells
Assay: HEK assay (GLP HEK / Migalastat Amenability Assay): α-Gal A activity in lysates of transiently transfected HEK-293 cells incubated with or without 10 μM migalastat
Format: cell-based, human
Conditions: for Absolute increase (% WT) / Relative increase: 10 μM migalastat versus baseline; for Baseline α-Gal A activity (% WT): absence of migalastat; for Baseline α-Gal A activity (% WT) / 10 μM migalastat α-Gal A activity (% WT): percentage of baseline wild-type α-Gal A activity; for Baseline α-Gal A activity (% WT) / Baseline α-Gal A activity / 10 μM migalastat α-Gal A activity / 10 μM migalastat α-Gal A activity (% WT): mean ± SEM; for Baseline α-Gal A activity / 10 μM migalastat α-Gal A activity: lysates of HEK-293 cells transiently transfected with the mutant form; for Baseline α-Gal A activity: incubated 5 days in absence of migalastat; for 10 μM migalastat α-Gal A activity: incubated 5 days with 10 μM migalastat; for 10 μM migalastat α-Gal A activity (% WT): with 10 μM migalastat, 5 days
In short: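 HEK-293 cells transiently transfected with mutant α-Gal A and incubated with or without 10 μM migalastat; lysate activity given as nmol free 4-MU released per mg protein per hour. Values are mean±SEM.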

Molecule | Absolute increase (% WT) | Relative increase | Baseline α-Gal A activity (% WT) | Baseline α-Gal A activity [nmol/mg/h] | 10 μM migalastat α-Gal A activity [nmol/mg/h] | 10 μM migalastat α-Gal A activity (% WT)
I367F (protein) MQLRNPELHLGCALALRFLALVSWDIPGARALDNGLARTPTMGWLHWERFMCNLDCQEEPDSCISEKLFMEMAELMVSEGWKDAGYEYLCIDDCWMAPQRDSEGRLQADPQRFPHGIRQLANYVHSKGLKLGIYADVGNKTCAGFPGSFGYYDIDAQTFADWGVDLLKFDGCYCDSLENLADGYKHMSLALNRTGRSIVYSCEWPLYMWPFQKPNYTEIRQYCNHWRNFADIDDSWKSIKSILDWTSFNQERIVDVAGPGGWNDPDMLVIGNFGLSWNQQVTQMALWAIMAAPLFMSNDLRHISPQAKALLQDKDVIAINQDPLGKQGYQLRQGDNFEVWERPLSGLAWAVAMINRQEIGGPRSYTFAVASLGKGVACNPACFITQLLPVKRKLGFYEWTSRLRSHINPTGTVLLQLENTMQMSLKDLL | 21.6 | 1.4 | 48.3 ± 3.7 | 15728 ± 1680 | 22178 ± 1794 | 69.9 ± 5.7
I367M (protein) MQLRNPELHLGCALALRFLALVSWDIPGARALDNGLARTPTMGWLHWERFMCNLDCQEEPDSCISEKLFMEMAELMVSEGWKDAGYEYLCIDDCWMAPQRDSEGRLQADPQRFPHGIRQLANYVHSKGLKLGIYADVGNKTCAGFPGSFGYYDIDAQTFADWGVDLLKFDGCYCDSLENLADGYKHMSLALNRTGRSIVYSCEWPLYMWPFQKPNYTEIRQYCNHWRNFADIDDSWKSIKSILDWTSFNQERIVDVAGPGGWNDPDMLVIGNFGLSWNQQVTQMALWAIMAAPLFMSNDLRHISPQAKALLQDKDVIAINQDPLGKQGYQLRQGDNFEVWERPLSGLAWAVAMINRQEIGGPRSYTMAVASLGKGVACNPACFITQLLPVKRKLGFYEWTSRLRSHINPTGTVLLQLENTMQMSLKDLL | 22.3 | 1.3 | 76.7 ± 3.9 | 28430 ± 1769 | 36008 ± 2249 | 99 ± 6.7
A368G (protein) MQLRNPELHLGCALALRFLALVSWDIPGARALDNGLARTPTMGWLHWERFMCNLDCQEEPDSCISEKLFMEMAELMVSEGWKDAGYEYLCIDDCWMAPQRDSEGRLQADPQRFPHGIRQLANYVHSKGLKLGIYADVGNKTCAGFPGSFGYYDIDAQTFADWGVDLLKFDGCYCDSLENLADGYKHMSLALNRTGRSIVYSCEWPLYMWPFQKPNYTEIRQYCNHWRNFADIDDSWKSIKSILDWTSFNQERIVDVAGPGGWNDPDMLVIGNFGLSWNQQVTQMALWAIMAAPLFMSNDLRHISPQAKALLQDKDVIAINQDPLGKQGYQLRQGDNFEVWERPLSGLAWAVAMINRQEIGGPRSYTIGVASLGKGVACNPACFITQLLPVKRKLGFYEWTSRLRSHINPTGTVLLQLENTMQMSLKDLL | 30.9 | 1.3 | 83.9 ± 4.7 | 31616 ± 2552 | 42198 ± 2923 | 114.8 ± 7.8
I367L (protein) MQLRNPELHLGCALALRFLALVSWDIPGARALDNGLARTPTMGWLHWERFMCNLDCQEEPDSCISEKLFMEMAELMVSEGWKDAGYEYLCIDDCWMAPQRDSEGRLQADPQRFPHGIRQLANYVHSKGLKLGIYADVGNKTCAGFPGSFGYYDIDAQTFADWGVDLLKFDGCYCDSLENLADGYKHMSLALNRTGRSIVYSCEWPLYMWPFQKPNYTEIRQYCNHWRNFADIDDSWKSIKSILDWTSFNQERIVDVAGPGGWNDPDMLVIGNFGLSWNQQVTQMALWAIMAAPLFMSNDLRHISPQAKALLQDKDVIAINQDPLGKQGYQLRQGDNFEVWERPLSGLAWAVAMINRQEIGGPRSYTLAVASLGKGVACNPACFITQLLPVKRKLGFYEWTSRLRSHINPTGTVLLQLENTMQMSLKDLL | 21.9 | 1.2 | 79 ± 4 | 25211 ± 1640 | 31257 ± 2256 | 101 ± 9.3
